According to article PMC11205783, “HigA2 (Rv2021c) Is a Transcriptional Regulator with Multiple Regulatory Targets in Mycobacterium tuberculosis”:

T1: HigA2 (Mycobacterium tuberculosis H37Rv, UniProt O53467 1-101)
T1 sequence: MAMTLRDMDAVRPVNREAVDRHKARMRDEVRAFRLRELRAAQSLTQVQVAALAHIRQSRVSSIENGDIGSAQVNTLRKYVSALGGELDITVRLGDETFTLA


Target: T1, HigA2
Experiment: EMSA; EMSA: 20 mM Tris-HCl, 150 mM NaCl, pH 8.0, 37 °C, 5 min, HigA2 1 uM (titrated in Fig 4); agarose or native PAGE. Pull-down: streptavidin beads, 4 °C, PBS washes
Conditions: protein: recombinant; tags: C-terminal 6xHis; chain copies: 2

| Binder | binding result |
| --- | --- |
| seq6 m4 (dsDNA) DNA 1: CGCTGCTCTTACCCGGAGGAATATCACAGGTCCGTGATATCGCGTATCGCGCTACTCTG DNA 2: CAGAGTAGCGCGATACGCGATATCACGGACCTGTGATATTCCTCCGGGTAAGAGCAGCG | binds |
| seq6 m6 (dsDNA) DNA 1: CGCTGCTCTTACCCGGAGGAGCATCACCCTTGTGTGATCACGCGTATCGCGCTACTCTG DNA 2: CAGAGTAGCGCGATACGCGTGATCACACAAGGGTGATGCTCCTCCGGGTAAGAGCAGCG | binds |
| seq6 m5 (dsDNA) DNA 1: CTGCTCAAAGATCGACTAGTATATCACAGGTCCGTGATATGACGTATACCTTTGGTGCA DNA 2: TGCACCAAAGGTATACGTCATATCACGGACCTGTGATATACTAGTCGATCTTTGAGCAG | binds |
